Reference: patent US20090311265A1

What was measured:
[1] = target: recombinant HA, subtype H7 (A/Netherlands/219/03 (H7N7)) (influenza A virus A/Netherlands/219/03 (H7N7)); experiment: ELISA, coated HA, IgG 5 µg/ml
[2] = target: recombinant HA, subtype H9 (A/Hong Kong/1073/99 (H9N2)) (influenza A virus A/Hong Kong/1073/99 (H9N2)); experiment: ELISA, coated HA, IgG 5 µg/ml

B1: CR6329 (antibody, V domains shown)
VH: EVQLVQSGAEVKKPGSSVKVSCKASGGIFRSNSISWVRQAPGQGLEWMGGIFALFGTTDYAQKFQGRVTITADESSTTVYLELSSLTSEDTAVYYCARGSGYTTRNYFDYWGQGTLVTVSS
VL: EIVLTQSPGTLSLSPGERATLSCRASQSVSSNYLGWYQQKPGQAPRLLIYGASSRASGIPDRFSGGGSGTDFTLTISRLEPEDFAVYYCQQYGSSPLTFGGGTKVEIKR
[1]
  OD 492 nm: 0.17 OD 492 nm
[2]
  OD 492 nm: 2.16 OD 492 nm
